Laboratory results: publication doi:10.1101/2024.08.14.607909 (bioRxiv, 2024)

How the values were obtained:
crystal structure = biological target: the molecule itself; test: crystal structure
SEC-SAXS = biological target: the molecule itself; test: SEC-SAXS

B1: C-terminal pentraxin domain of human PTX3 (domain or fragment)
chain: ELEGCETAILFPMRSKKIFGSVHPVRPMRLESFSACIWVKATDVLNKTILFSYGTKRNPYEIQLYLSYQSIVFVVGGEENKLVAEAMVSLGRWTHLCGTWNSEEGLTSLWVNGELAATTVEMATGHIVPEGGILQIGQEKNGCCVGGGFDETLAFSGRLTGFNIWDSVLSNEEIRETGGAESCHIRGNIVGWGVTEIQPHGGAQYVS
modifications: N-linked glycan at N220
- binding result (crystal structure): binds

B2: Δ1-24_PTX3 (PTX3 truncation mutant with residues 1-24 of the mature protein deleted) (domain or fragment, human)
chain: ELEDPTPCACGQEHSEWDKLFIMLENSQMRERMLLQATDDVLRGELQRLREELGRLAESLARPCAPGAPAEARLTSALDELLQATRDAGRRLARMEGAEAQRPEEAGRALAAVLEELRQTRADLHAVQGWAARSWLPAGCETAILFPMRSKKIFGSVHPVRPMRLESFSACIWVKATDVLNKTILFSYGTKRNPYEIQLYLSYQSIVFVVGGEENKLVAEAMVSLGRWTHLCGTWNSEEGLTSLWVNGELAATTVEMATGHIVPEGGILQIGQEKNGCCVGGGFDETLAFSGRLTGFNIWDSVLSNEEIRETGGAESCHIRGNIVGWGVTEIQPHGGAQYVS
modifications: N-linked glycan at N220
- binding result (SEC-SAXS): binds
